Experimental data as given in the supplement of paper PMC10065799, “High-throughput profiling of sequence recognition by tyrosine kinases and SH2 domains using bacterial peptide display” (eLife, 2023).
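Note: 11-residue human phosphosite peptides and single-mutation variants displayed on the E. coli surface, counted by deep sequencing, each peptide's frequency after selection divided by its frequency in the unselected input library; frequency after pTyr selection over input frequency; kinase dosed for 20-30% of maximal phosphorylation in three min.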

Each sequence was assayed on Fer (mouse) (assay: phosphorylation enrichment, bacterial display (enrichment ratio); higher = better substrate or ligand; peptides without Tyr show the background).
For NFADPYRQLPF [CTNND2_Y503_Q507P_YF], the phosphorylation enrichment was 0.46.
For VYAANYYKLLG [ROR2_Y645_D644N], the phosphorylation enrichment was 0.469.
With CQAHGYSCQLI [STK11_Y156_F157S] the phosphorylation enrichment was 0.506.
Work on GMRHGHGVRQS [JPH2_Y141_Y141H] yielded a phosphorylation enrichment of 0.529.
Sequence LWPIWYSCHRP [MRGPRX1_Y130_R131S] has a phosphorylation enrichment of 0.881.
Sequence PFFASYPPSPD [GDAP2_Y491_T489A_YF] has a phosphorylation enrichment of 0.435.
In the case of CTTSHYNYMCN [TP53_Y234_I232S], the phosphorylation enrichment is reported as 0.55.
With YIRRDYEACKA [BBS4_Y48_K46R] the phosphorylation enrichment was 0.426.
With SISYDYCRVPM [BST2_Y8_T4I] the phosphorylation enrichment was 3.87.
In the case of LPHVIYCRLWC [SMAD2_Y128_R133C], the phosphorylation enrichment is reported as 0.851.
With LHAAAYWNALA [UQCRC2_Y182_R183W] the phosphorylation enrichment was 0.385.
With AGADGYGYLAP [FOXL2_Y186] the phosphorylation enrichment was 0.26.
PVQAAYKKVVA [HBB_Y131_Q132K] showed a phosphorylation enrichment of 0.226.
Work on KVIDMYLMGCF [GABRB2_Y308_A304V] yielded a phosphorylation enrichment of 0.638.
Sequence LRFDVYGGENE [STOX1_Y610_E608D_YF] has a phosphorylation enrichment of 0.594.
Sequence DTYDPYLDVAL [USP36_Y268] has a phosphorylation enrichment of 0.661.
Sequence EVVGKYSVHNA [MLH1_Y183_R182K] has a phosphorylation enrichment of 0.426.
NSIGNYYKPWF [DHCR24_Y299] gave a phosphorylation enrichment of 0.52.
PNEAVYTKMMT [G6PD_Y401] gave a phosphorylation enrichment of 6.07.
With CTTIHKNFMCN [TP53_Y234_Y234K_YF] the phosphorylation enrichment was 0.453.
QAEELYFGKMG [YES1_Y159_W158L] was tested, and the phosphorylation enrichment was 0.747.
ESLRSYDVMDV [KCNQ2_Y562_P561S] showed a phosphorylation enrichment of 0.555.
For AIIGIYILRDD [CDH23_Y2949], the phosphorylation enrichment was 0.676.
Sequence ESLSSYWESAK [APOC2_Y47] has a phosphorylation enrichment of 0.354.
In the case of EGDGVYTLNDE [HP_Y125_N129D], the phosphorylation enrichment is reported as 0.555.
With RKVLVYDKLNV [ROR2_Y624_N620K] the phosphorylation enrichment was 1.25.
In the case of AACQHYGVRTC [NR4A2_Y275], the phosphorylation enrichment is reported as 0.379.
Sequence RNFVHYVQGLK [VWF_Y1400_R1399H] has a phosphorylation enrichment of 0.349.
In the case of CLEKEYFDQHF [NPC1_Y394_R389C], the phosphorylation enrichment is reported as 0.593.
KPLMPCMRFSR [SMARCE1_Y73_Y73C_YF] gave a phosphorylation enrichment of 0.443.
SDYYAYSPVQE [H6PD_Y449_R453Q] gave a phosphorylation enrichment of 10.7.
AAQNCYKVTNG [TPI1_Y105] showed a phosphorylation enrichment of 0.391.
For RRAVKYLQMVG [AVPR2_Y117_C112R], the phosphorylation enrichment was 0.431.

What follows are sequences tested against Jak2 (UniProt O60674) in the same assay as above.
Jak2, sequence (O60674 whole entry, looked up): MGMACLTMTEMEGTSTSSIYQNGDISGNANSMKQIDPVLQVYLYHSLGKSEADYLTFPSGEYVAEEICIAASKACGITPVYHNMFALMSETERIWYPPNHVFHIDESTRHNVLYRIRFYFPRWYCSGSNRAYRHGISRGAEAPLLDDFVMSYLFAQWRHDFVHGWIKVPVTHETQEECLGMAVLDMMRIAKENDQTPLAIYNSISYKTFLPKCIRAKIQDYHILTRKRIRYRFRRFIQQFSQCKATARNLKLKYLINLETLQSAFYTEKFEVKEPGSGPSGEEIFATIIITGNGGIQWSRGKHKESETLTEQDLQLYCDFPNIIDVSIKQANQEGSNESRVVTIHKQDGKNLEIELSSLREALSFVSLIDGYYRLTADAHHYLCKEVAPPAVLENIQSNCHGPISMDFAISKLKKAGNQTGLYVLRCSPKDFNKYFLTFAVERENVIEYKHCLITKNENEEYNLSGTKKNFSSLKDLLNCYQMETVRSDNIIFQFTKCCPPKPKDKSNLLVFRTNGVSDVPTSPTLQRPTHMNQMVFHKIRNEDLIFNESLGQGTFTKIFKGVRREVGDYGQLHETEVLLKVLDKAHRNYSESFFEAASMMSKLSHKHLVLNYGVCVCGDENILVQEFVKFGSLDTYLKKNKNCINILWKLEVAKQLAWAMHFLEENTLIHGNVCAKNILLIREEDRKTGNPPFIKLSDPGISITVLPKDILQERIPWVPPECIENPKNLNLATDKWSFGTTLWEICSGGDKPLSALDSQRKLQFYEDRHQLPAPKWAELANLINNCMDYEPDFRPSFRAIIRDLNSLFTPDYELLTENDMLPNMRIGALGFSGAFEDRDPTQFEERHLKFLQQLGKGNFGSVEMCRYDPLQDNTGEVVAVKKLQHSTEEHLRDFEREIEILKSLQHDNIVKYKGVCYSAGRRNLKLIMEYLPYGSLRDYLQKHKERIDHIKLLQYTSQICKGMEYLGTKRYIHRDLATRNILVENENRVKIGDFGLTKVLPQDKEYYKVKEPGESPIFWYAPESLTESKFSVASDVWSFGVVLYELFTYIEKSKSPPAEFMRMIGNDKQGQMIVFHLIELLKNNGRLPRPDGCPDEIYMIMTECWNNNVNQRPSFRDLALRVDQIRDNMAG
NFADPYRQLPF [CTNND2_Y503_Q507P_YF] gave a phosphorylation enrichment of 0.62.
With VYAANYYKLLG [ROR2_Y645_D644N] the phosphorylation enrichment was 3.19.
For CQAHGYSCQLI [STK11_Y156_F157S], the phosphorylation enrichment was 0.556.
For GMRHGHGVRQS [JPH2_Y141_Y141H], the phosphorylation enrichment was 0.975.
For LWPIWYSCHRP [MRGPRX1_Y130_R131S], the phosphorylation enrichment was 1.27.
PFFASYPPSPD [GDAP2_Y491_T489A_YF] showed a phosphorylation enrichment of 1.02.
With CTTSHYNYMCN [TP53_Y234_I232S] the phosphorylation enrichment was 0.537.
Sequence YIRRDYEACKA [BBS4_Y48_K46R] has a phosphorylation enrichment of 0.75.
Work on SISYDYCRVPM [BST2_Y8_T4I] yielded a phosphorylation enrichment of 3.05.
For LPHVIYCRLWC [SMAD2_Y128_R133C], the phosphorylation enrichment was 1.95.
Sequence LHAAAYWNALA [UQCRC2_Y182_R183W] has a phosphorylation enrichment of 0.926.
Work on AGADGYGYLAP [FOXL2_Y186] yielded a phosphorylation enrichment of 0.538.
Work on PVQAAYKKVVA [HBB_Y131_Q132K] yielded a phosphorylation enrichment of 0.486.
Work on KVIDMYLMGCF [GABRB2_Y308_A304V] yielded a phosphorylation enrichment of 1.24.
LRFDVYGGENE [STOX1_Y610_E608D_YF] gave a phosphorylation enrichment of 1.22.
In the case of DTYDPYLDVAL [USP36_Y268], the phosphorylation enrichment is reported as 1.1.
For EVVGKYSVHNA [MLH1_Y183_R182K], the phosphorylation enrichment was 0.569.
With NSIGNYYKPWF [DHCR24_Y299] the phosphorylation enrichment was 9.63.
For PNEAVYTKMMT [G6PD_Y401], the phosphorylation enrichment was 0.838.
CTTIHKNFMCN [TP53_Y234_Y234K_YF] gave a phosphorylation enrichment of 0.553.
QAEELYFGKMG [YES1_Y159_W158L] showed a phosphorylation enrichment of 1.14.
ESLRSYDVMDV [KCNQ2_Y562_P561S] gave a phosphorylation enrichment of 0.921.
AIIGIYILRDD [CDH23_Y2949] was tested, and the phosphorylation enrichment was 1.35.
With ESLSSYWESAK [APOC2_Y47] the phosphorylation enrichment was 0.888.
EGDGVYTLNDE [HP_Y125_N129D] showed a phosphorylation enrichment of 1.21.
Work on RKVLVYDKLNV [ROR2_Y624_N620K] yielded a phosphorylation enrichment of 0.548.
Sequence AACQHYGVRTC [NR4A2_Y275] has a phosphorylation enrichment of 0.513.
Sequence RNFVHYVQGLK [VWF_Y1400_R1399H] has a phosphorylation enrichment of 0.605.
For CLEKEYFDQHF [NPC1_Y394_R389C], the phosphorylation enrichment was 1.04.
KPLMPCMRFSR [SMARCE1_Y73_Y73C_YF] showed a phosphorylation enrichment of 0.707.
With SDYYAYSPVQE [H6PD_Y449_R453Q] the phosphorylation enrichment was 9.08.
AAQNCYKVTNG [TPI1_Y105] was tested, and the phosphorylation enrichment was 0.665.
In the case of RRAVKYLQMVG [AVPR2_Y117_C112R], the phosphorylation enrichment is reported as 0.887.

What follows are sequences tested against Fes (UniProt P07332) in the same assay as above.
Fes, sequence (P07332 whole entry, looked up): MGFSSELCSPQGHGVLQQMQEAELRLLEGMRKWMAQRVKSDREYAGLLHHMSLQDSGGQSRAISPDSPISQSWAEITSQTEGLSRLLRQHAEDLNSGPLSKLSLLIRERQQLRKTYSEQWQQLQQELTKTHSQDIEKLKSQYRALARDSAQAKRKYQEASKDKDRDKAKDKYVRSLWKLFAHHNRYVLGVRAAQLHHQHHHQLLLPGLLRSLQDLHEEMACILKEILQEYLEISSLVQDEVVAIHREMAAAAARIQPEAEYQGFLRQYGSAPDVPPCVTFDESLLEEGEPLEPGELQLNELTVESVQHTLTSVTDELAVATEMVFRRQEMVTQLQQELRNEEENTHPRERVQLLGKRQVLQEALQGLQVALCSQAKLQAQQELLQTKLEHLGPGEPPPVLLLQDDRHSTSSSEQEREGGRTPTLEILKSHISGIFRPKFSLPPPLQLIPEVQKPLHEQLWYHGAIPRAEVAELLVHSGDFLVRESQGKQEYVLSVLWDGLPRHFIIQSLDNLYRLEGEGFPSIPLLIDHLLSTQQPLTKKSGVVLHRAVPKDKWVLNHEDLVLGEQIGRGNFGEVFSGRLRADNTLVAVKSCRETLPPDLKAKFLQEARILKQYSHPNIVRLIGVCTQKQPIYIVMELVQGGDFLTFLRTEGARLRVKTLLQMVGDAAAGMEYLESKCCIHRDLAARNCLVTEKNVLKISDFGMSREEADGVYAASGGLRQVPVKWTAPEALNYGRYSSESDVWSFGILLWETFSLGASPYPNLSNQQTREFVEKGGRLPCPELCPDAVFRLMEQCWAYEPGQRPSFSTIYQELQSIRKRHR
In the case of NFADPYRQLPF [CTNND2_Y503_Q507P_YF], the phosphorylation enrichment is reported as 0.728.
In the case of VYAANYYKLLG [ROR2_Y645_D644N], the phosphorylation enrichment is reported as 1.11.
In the case of CQAHGYSCQLI [STK11_Y156_F157S], the phosphorylation enrichment is reported as 0.925.
Sequence GMRHGHGVRQS [JPH2_Y141_Y141H] has a phosphorylation enrichment of 0.803.
LWPIWYSCHRP [MRGPRX1_Y130_R131S] was tested, and the phosphorylation enrichment was 1.97.
PFFASYPPSPD [GDAP2_Y491_T489A_YF] showed a phosphorylation enrichment of 1.23.
For CTTSHYNYMCN [TP53_Y234_I232S], the phosphorylation enrichment was 0.755.
For YIRRDYEACKA [BBS4_Y48_K46R], the phosphorylation enrichment was 0.807.
In the case of SISYDYCRVPM [BST2_Y8_T4I], the phosphorylation enrichment is reported as 1.17.
LPHVIYCRLWC [SMAD2_Y128_R133C] gave a phosphorylation enrichment of 1.35.
Work on LHAAAYWNALA [UQCRC2_Y182_R183W] yielded a phosphorylation enrichment of 0.882.
AGADGYGYLAP [FOXL2_Y186] was tested, and the phosphorylation enrichment was 0.622.
With PVQAAYKKVVA [HBB_Y131_Q132K] the phosphorylation enrichment was 0.762.
KVIDMYLMGCF [GABRB2_Y308_A304V] was tested, and the phosphorylation enrichment was 1.38.
LRFDVYGGENE [STOX1_Y610_E608D_YF] showed a phosphorylation enrichment of 1.29.
For DTYDPYLDVAL [USP36_Y268], the phosphorylation enrichment was 1.32.
In the case of EVVGKYSVHNA [MLH1_Y183_R182K], the phosphorylation enrichment is reported as 0.697.
NSIGNYYKPWF [DHCR24_Y299] showed a phosphorylation enrichment of 0.774.
PNEAVYTKMMT [G6PD_Y401] gave a phosphorylation enrichment of 0.972.
CTTIHKNFMCN [TP53_Y234_Y234K_YF] gave a phosphorylation enrichment of 0.699.
QAEELYFGKMG [YES1_Y159_W158L] showed a phosphorylation enrichment of 1.55.
ESLRSYDVMDV [KCNQ2_Y562_P561S] showed a phosphorylation enrichment of 1.28.
Work on AIIGIYILRDD [CDH23_Y2949] yielded a phosphorylation enrichment of 1.5.
For ESLSSYWESAK [APOC2_Y47], the phosphorylation enrichment was 1.01.
Work on EGDGVYTLNDE [HP_Y125_N129D] yielded a phosphorylation enrichment of 1.23.
For RKVLVYDKLNV [ROR2_Y624_N620K], the phosphorylation enrichment was 0.852.
With AACQHYGVRTC [NR4A2_Y275] the phosphorylation enrichment was 0.581.
RNFVHYVQGLK [VWF_Y1400_R1399H] was tested, and the phosphorylation enrichment was 0.833.
CLEKEYFDQHF [NPC1_Y394_R389C] gave a phosphorylation enrichment of 1.32.
Work on KPLMPCMRFSR [SMARCE1_Y73_Y73C_YF] yielded a phosphorylation enrichment of 0.916.
SDYYAYSPVQE [H6PD_Y449_R453Q] gave a phosphorylation enrichment of 0.952.
AAQNCYKVTNG [TPI1_Y105] was tested, and the phosphorylation enrichment was 0.905.
With RRAVKYLQMVG [AVPR2_Y117_C112R] the phosphorylation enrichment was 0.978.

These sequences were tested on c-Abl (mouse) in the same assay as above.
For NFADPYRQLPF [CTNND2_Y503_Q507P_YF], the phosphorylation enrichment was 0.638.
VYAANYYKLLG [ROR2_Y645_D644N] showed a phosphorylation enrichment of 1.23.
Work on CQAHGYSCQLI [STK11_Y156_F157S] yielded a phosphorylation enrichment of 0.492.
For GMRHGHGVRQS [JPH2_Y141_Y141H], the phosphorylation enrichment was 1.28.
LWPIWYSCHRP [MRGPRX1_Y130_R131S] showed a phosphorylation enrichment of 0.943.
Sequence PFFASYPPSPD [GDAP2_Y491_T489A_YF] has a phosphorylation enrichment of 0.859.
Sequence CTTSHYNYMCN [TP53_Y234_I232S] has a phosphorylation enrichment of 0.515.
YIRRDYEACKA [BBS4_Y48_K46R] was tested, and the phosphorylation enrichment was 0.64.
Sequence SISYDYCRVPM [BST2_Y8_T4I] has a phosphorylation enrichment of 1.03.
LPHVIYCRLWC [SMAD2_Y128_R133C] showed a phosphorylation enrichment of 4.33.
With LHAAAYWNALA [UQCRC2_Y182_R183W] the phosphorylation enrichment was 0.582.
Sequence AGADGYGYLAP [FOXL2_Y186] has a phosphorylation enrichment of 0.443.
With PVQAAYKKVVA [HBB_Y131_Q132K] the phosphorylation enrichment was 0.73.
Sequence KVIDMYLMGCF [GABRB2_Y308_A304V] has a phosphorylation enrichment of 0.964.
Sequence LRFDVYGGENE [STOX1_Y610_E608D_YF] has a phosphorylation enrichment of 0.793.
DTYDPYLDVAL [USP36_Y268] was tested, and the phosphorylation enrichment was 0.859.
For EVVGKYSVHNA [MLH1_Y183_R182K], the phosphorylation enrichment was 0.527.
In the case of NSIGNYYKPWF [DHCR24_Y299], the phosphorylation enrichment is reported as 14.1.
PNEAVYTKMMT [G6PD_Y401] showed a phosphorylation enrichment of 0.674.
CTTIHKNFMCN [TP53_Y234_Y234K_YF] showed a phosphorylation enrichment of 0.49.
In the case of QAEELYFGKMG [YES1_Y159_W158L], the phosphorylation enrichment is reported as 2.25.
For ESLRSYDVMDV [KCNQ2_Y562_P561S], the phosphorylation enrichment was 0.817.
Sequence AIIGIYILRDD [CDH23_Y2949] has a phosphorylation enrichment of 0.965.
With ESLSSYWESAK [APOC2_Y47] the phosphorylation enrichment was 0.584.
EGDGVYTLNDE [HP_Y125_N129D] was tested, and the phosphorylation enrichment was 0.8.
With RKVLVYDKLNV [ROR2_Y624_N620K] the phosphorylation enrichment was 0.854.
With AACQHYGVRTC [NR4A2_Y275] the phosphorylation enrichment was 0.424.
In the case of RNFVHYVQGLK [VWF_Y1400_R1399H], the phosphorylation enrichment is reported as 0.669.
CLEKEYFDQHF [NPC1_Y394_R389C] gave a phosphorylation enrichment of 0.902.
With KPLMPCMRFSR [SMARCE1_Y73_Y73C_YF] the phosphorylation enrichment was 0.88.
SDYYAYSPVQE [H6PD_Y449_R453Q] showed a phosphorylation enrichment of 8.16.
In the case of AAQNCYKVTNG [TPI1_Y105], the phosphorylation enrichment is reported as 0.738.
For RRAVKYLQMVG [AVPR2_Y117_C112R], the phosphorylation enrichment was 0.961.
